For test [1], the target named is T1, PTD12 (Sp-C9_CAA813-821), synthetic Cas9 target peptide […] (Streptococcus pyogenes). The test can be described thus: dot blot densitometry.
For test [2], the target named is T1, PTD12 (Sp-C9_CAA813-821), synthetic …. The test can be described thus: dot blot densitometry, same amount of purified proteins.

The values that follow come from patent US20210017226A1, “METHOD OF GENERATING INTERACTING PEPTIDES” (Peption, LLC, priority 2017, published 2021).

Ends that are not written are not given here.

B1: C9-813-CAA4 (tetramer, parallel-linker-antiparallel-linker-parallel-linker-antiparallel), recombinan (designed binder)
chain: MHHHHHHLLSVEVQQLCYPENLEYLFIEKLRSEAEGNGTIDFELLQVDVILLKTGEVNNLEQIKIRLF
B1 returned a fold stronger interaction than the monomers (C9-813-92P, C9-813-93P) in test [1] of 1.5 fold.
For LLQVDVILLCYPENLEQIKIRLFGSGSHHHHHH (designed binder, also: dimer) [PTD14 (Sp-C9_CAA813-821PAPH), synthetic His-tagged CAAP oligopeptide dimer], in test [1], the fold stronger interaction than the monomer PTD13 amounted to 2 fold and the fold stronger interaction than the sAb monomer PTD13 was 2 fold.
Turning to MHHHHHHELLLSVEVQQLCYPENLEYLFIEKL (designed binder, not shown: small tags and cut ends; large carriers) [C9-813-CAA2 (dimer, parallel-linker-antiparallel), recombinant CAAP oligopeptide-AP fusion protein], in test [2], the fold stronger interaction than C9-813-92P or C9-813-93P (monomers) stood at 2.5 fold and the fold stronger interaction than C9-813-CAA4 (tetramer) came to 1.5 fold.
